Data set [1] deals with HeLa Kyoto. Put plainly: solubility change mitosis vs G1/S (difference of NP-40 vs SDS log2 ratios) (log2 ratio difference); higher = more soluble in mitosis.
Data set [2] relates to HeLa Kyoto. Put plainly: solubility in G1/S (NP-40 vs SDS abundance) (log2 ratio); higher = more soluble. Particulars: cell cycle stage: G1/S.
Data set [3] concerns HeLa Kyoto. Put plainly: melting temperature (median over replicates), in situ; higher = more thermally stable.
For data set [4], the system named is HeLa Kyoto. Briefly: thermal stability score vs G1/S (z-score of summed log2 fold changes over temperatures); higher = more thermally stable than in G1/S.
The mark [5] stands for this setting: cell cycle stage: early G1 (4.5 h after nocodazole release).
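For melting temperature (median over replicates), in situ in this document: HeLa Kyoto cells synchronized by double thymidine or nocodazole block, proteins quantified by TMT10plex mass spectrometry, three independent biological replicates.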
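For solubility change mitosis vs G1/S (difference of NP-40 vs SDS log2 ratios) in this document: synchronized HeLa Kyoto cells (double thymidine block for G1/S, nocodazole release for mitosis), protein amounts in NP-40 versus SDS lysates quantified by mass spectrometry, three biological replicates.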
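For solubility in G1/S (NP-40 vs SDS abundance) in this document: HeLa Kyoto cells arrested at G1/S by double thymidine block, proteins quantified by TMT10plex mass spectrometry in mild NP-40 versus SDS extracts, three biological replicates.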
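For thermal stability score vs G1/S (z-score of summed log2 fold changes over temperatures) in this document: synchronized HeLa Kyoto cells, proteins quantified by TMT10plex mass spectrometry, three biological replicates, mitosis taken 0.5 h after nocodazole release, G1/S directly after double thymidine block.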

Consider “MEADKDDTQQILKEHSPDEFIKDEQNKGLIDEITKKNIQLKKEIQKLETELQEATKEFQIKEDIPETKMKFLSVETPENDSQLSNISCSFQVSSKVPYEIQKGQALITFEKEEVAQNVVSMSKHHVQIKDVNLEVTAKPVPLNSGVRFQVYVEVSKMKINVTEIPDTLREDQMRDKLELSFSKSRNGGGEVDRVDYDRQSGSAVITFVEIGVADKILKKKEYPLYINQTCHRVTVSPYTEIHLKKYQIFSGTSKRTVLLTGMEGIQMDEEIVEDLINIHFQRAKNGGGEVDVVKCSLGQPHIAYFEE [NMI]”, for which the “solubility change mitosis (log2)” value with HeLa Kyoto [1] was -0.0719. Further, in the data set on HeLa Kyoto [2], the “solubility in G1/S (log2)” value was 0.127. In addition, the melting temperature in the data set on HeLa Kyoto [3] (cell cycle stage: G1/S) is 55.4 °C; with HeLa Kyoto [3] (cell cycle stage: mitosis), 55.7 °C. For the same sequence, the thermal stability score in the data set with HeLa Kyoto [4] (setting [5]) is -1.52; with HeLa Kyoto [4] (cell cycle stage: mitosis), -4.03.

“MEALILEPSLYTVKAILILDNDGDRLFAKYYDDTYPSVKEQKAFEKNIFNKTHRTDSEIALLEGLTVVYKSSIDLYFYVIGSSYENELMLMAVLNCLFDSLSQMLRKNVEKRALLENMEGLFLAVDEIVDGGVILESDPQQVVHRVALRGEDVPLTEQTVSQVLQSAKEQIKWSLLR [COPZ1]”: the “solubility change mitosis (log2)” value with HeLa Kyoto [1] is 0.197. Further, the “solubility in G1/S (log2)” value in the data set with HeLa Kyoto [2] was found to be 0.235. In addition, the melting temperature with HeLa Kyoto [3] (cell cycle stage: G1/S) stood at 52.4 °C; with HeLa Kyoto [3] (cell cycle stage: mitosis) it was 53.1 °C. The thermal stability score was -1.54 in the data set with HeLa Kyoto [4] (setting [5]) and -1.52 in the data set with HeLa Kyoto [4] (cell cycle stage: mitosis).

On to “MEALPLLAATTPDHGRHRRLLLLPLLLFLLPAGAVQGWETEERPRTREEECHFYAGGQVYPGEASRVSVADHSLHLSKAKISKPAPYWEGTAVIDGEFKELKLTDYRGKYLVFFFYPLDFTFVCPTEIIAFGDRLEEFRSINTEVVACSVDSQFTHLAWINTPRRQGGLGPIRIPLLSDLTHQISKDYGVYLEDSGHTLRGLFIIDDKGILRQITLNDLPVGRSVDETLRLVQAFQYTDKHGEVCPAGWKPGSETIIPDPAGKLKYFDKLN [PRDX4]”, for which, in the data set on HeLa Kyoto [1], the “solubility change mitosis (log2)” value is -0.0673. The “solubility in G1/S (log2)” value in the data set on HeLa Kyoto [2] was -0.00958. Besides, the results for the melting temperature in the data set on HeLa Kyoto [3] (cell cycle stage: G1/S) and in the data set on HeLa Kyoto [3] (cell cycle stage: mitosis) were 58.4 °C and 62.8 °C, respectively. Moreover, the thermal stability score with HeLa Kyoto [4] (setting [5]) is -1.92; in the data set with HeLa Kyoto [4] (cell cycle stage: mitosis), -4.08.

As for “MEALSRAGQEMSLAALKQHDPYITSIADLTGQVALYTFCPKANQWEKTDIEGTLFVYRRSASPYHGFTIVNRLNMHNLVEPVNKDLEFQLHEPFLLYRNASLSIYSIWFYDKNDCHRIAKLMADVVEEETRRSQQAARDKQSPSQANGCSDHRPIDILEMLSRAKDEYERNQMGDSNISSPGLQPSTQLSNLGSTETLEEMPSGSQDKSAPSGHKHLTVEELFGTSLPKEQPAVVGLDSEEMERLPGDASQKEPNSFLPFPFEQLGGAPQSETLGVPSAAHHSVQPEITTPVLITPASITQSNEKHAPTYTIPLSPVLSPTLPAEAPTAQVPPSLPRNSTMMQAVKTTPRQRSPLLNQPVPELSHASLIANQSPFRAPLNVTNTAGTSLPSVDLLQKLRLTPQHDQIQTQPLGKGAMVASFSPAAGQLATPESFIEPPSKTAAARVAASASLSNMVLAPLQSMQQNQDPEVFVQPKVLSSAIPVAGAPLVTATTTAVSSVLLAPSVFQQTVTRSSDLERKASSPSPLTIGTPESQRKPSIILSKSQLQDTLIHLIKNDSSFLSTLHEVYLQVLTKNKDNHNL [DCP1A]”, in the data set with HeLa Kyoto [1], the “solubility change mitosis (log2)” value is -0.0577. In addition, the “solubility in G1/S (log2)” value in the data set with HeLa Kyoto [2] worked out at 0.265. Also, the melting temperature with HeLa Kyoto [3] (cell cycle stage: G1/S) turned out to be 50.5 °C; in the data set on HeLa Kyoto [3] (cell cycle stage: mitosis), 50.9 °C. In addition, the thermal stability score in the data set on HeLa Kyoto [4] (setting [5]) is -0.228; in the data set on HeLa Kyoto [4] (cell cycle stage: mitosis), 1.27.

In the case of “MEANWTAFLFQAHEASHHQQQAAQNSLLPLLSSAVEPPDQKPLLPIPITQKPQGAPETLKDAIGIKKEKPKTSFVCTYCSKAFRDSYHLRRHESCHTGIKLVSRPKKTPTTVVPLISTIAGDSSRTSLVSTIAGILSTVTTSSSGTNPSSSASTTAMPVTQSVKKPSKPVKKNHACEMCGKAFRDVYHLNRHKLSHSDEKPFECPICNQRFKRKDRMTYHVRSHEGGITKPYTCSVCGKGFSRPDHLSCHVKHVHSTERPFKCQTCTAAFATKDRLRTHMVRHEGKVSCNICGKLLSAAYITSHLKTHGQSQSINCNTCKQGISKTCMSEETSNQKQQQQQQQQQQQQQQQQQQHVTSWPGKQVETLRLWEEAVKARKKEAANLCQTSTAATTPVTLTTPFSITSSVSSGTMSNPVTVAAAMSMRSPVNVSSAVNITSPMNIGHPVTITSPLSMTSPLTLTTPVNLPTPVTAPVNIAHPVTITSPMNLPTPMTLAAPLNIAMRPVESMPFLPQALPTSPPW [VEZF1]”, the “solubility change mitosis (log2)” value in the data set on HeLa Kyoto [1] is 0.0342. In addition, the “solubility in G1/S (log2)” value in the data set with HeLa Kyoto [2] is 0.142. The sequence also showed a melting temperature in the data set on HeLa Kyoto [3] (cell cycle stage: G1/S) of 55.4 °C. Also, the thermal stability score with HeLa Kyoto [4] (setting [5]) was found to be 0.665; with HeLa Kyoto [4] (cell cycle stage: mitosis), 0.5.

For “MEAQAQGLLETEPLQGTDEDAVASADFSSMLSEEEKEELKAELVQLEDEITTLRQVLSAKERHLVEIKQKLGMNLMNELKQNFSKSWHDMQTTTAYKKTHETLSHAGQKATAAFSNVGTAISKKFGDMSYSIRHSISMPAMRNSPTFKSFEERVETTVTSLKTKVGGTNPNGGSFEEVLSSTAHASAQSLAGGSRRTKEEELQC [TPD52L1]”, in the data set with HeLa Kyoto [1], the “solubility change mitosis (log2)” value stood at 0.111. Further, the “solubility in G1/S (log2)” value in the data set with HeLa Kyoto [2] turned out to be 0.458. Further, the values for the melting temperature in the data set with HeLa Kyoto [3] (cell cycle stage: G1/S) and in the data set on HeLa Kyoto [3] (cell cycle stage: mitosis) were 54.4 °C and 53.6 °C, respectively. The thermal stability score is -3.64 with HeLa Kyoto [4] (setting [5]) and -3.95 in the data set with HeLa Kyoto [4] (cell cycle stage: mitosis).
